Source: patent publication US20180155451A1 (published 2018)

B1: GpH7-B3 variant S324_15Y/GpL16-k0 (antibody, human IgG1, kappa)
heavy: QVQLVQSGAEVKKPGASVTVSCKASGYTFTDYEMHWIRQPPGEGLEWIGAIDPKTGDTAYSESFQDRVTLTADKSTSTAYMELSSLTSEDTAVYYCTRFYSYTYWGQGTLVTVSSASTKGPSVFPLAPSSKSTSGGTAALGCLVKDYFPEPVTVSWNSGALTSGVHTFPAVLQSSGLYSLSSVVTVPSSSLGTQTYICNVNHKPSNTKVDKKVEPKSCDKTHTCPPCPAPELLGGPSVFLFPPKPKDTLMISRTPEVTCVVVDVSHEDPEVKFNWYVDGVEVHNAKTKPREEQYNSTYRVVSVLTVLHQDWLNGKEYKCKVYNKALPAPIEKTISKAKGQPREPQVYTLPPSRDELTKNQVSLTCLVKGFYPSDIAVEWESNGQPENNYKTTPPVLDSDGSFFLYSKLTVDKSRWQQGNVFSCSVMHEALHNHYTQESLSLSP
light: DIVMTQSPLSLPVTPGEPASISCQASESLVHSNRNTYLHWYLQKPGQSPQLLIYKVSNRFSGVPDRFSGSGSGTDFTLKISRVEAEDVGVYYCSQNTHVPPTFGQGTKVEIERTVAAPSVFIFPPSDEQLKSGTASVVCLLNNFYPREAKVQWKVDNALQSGNSQESVTEQDSKDSTYSLSSTLTLSKADYEKHKVYACEVTHQGLSSPVTKSFNRGEC
notes: also called Ho Ab S324_15Y
B2: GpH7-B3 variant S324_16H/GpL16-k0 (antibody, human IgG1, kappa)
heavy: not shown
light: B1 light
notes: also called Ho Ab S324_16H
B3: GpH7-B3 variant S337_09D/GpL16-k0 (antibody, human IgG1, kappa)
heavy: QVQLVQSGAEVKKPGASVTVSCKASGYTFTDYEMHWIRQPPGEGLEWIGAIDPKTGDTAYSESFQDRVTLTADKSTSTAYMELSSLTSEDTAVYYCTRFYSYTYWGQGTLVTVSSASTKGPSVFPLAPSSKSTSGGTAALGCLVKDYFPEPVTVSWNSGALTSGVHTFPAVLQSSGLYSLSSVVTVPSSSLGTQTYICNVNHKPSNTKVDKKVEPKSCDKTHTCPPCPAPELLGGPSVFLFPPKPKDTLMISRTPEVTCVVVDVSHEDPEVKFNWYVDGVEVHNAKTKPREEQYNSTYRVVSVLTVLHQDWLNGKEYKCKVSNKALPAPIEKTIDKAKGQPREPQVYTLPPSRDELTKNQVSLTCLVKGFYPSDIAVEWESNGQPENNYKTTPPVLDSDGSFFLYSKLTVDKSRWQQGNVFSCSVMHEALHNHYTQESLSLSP
light: B1 light
notes: also called Ho Ab S337_09D
B4: GpH7-B3 variant S337_10E/GpL16-k0 (antibody, human IgG1, kappa)
heavy: not shown
light: B1 light
notes: also called Ho Ab S337_10E
B5: GpH7-B3 variant S337_14T/GpL16-k0 (antibody, human IgG1, kappa)
heavy: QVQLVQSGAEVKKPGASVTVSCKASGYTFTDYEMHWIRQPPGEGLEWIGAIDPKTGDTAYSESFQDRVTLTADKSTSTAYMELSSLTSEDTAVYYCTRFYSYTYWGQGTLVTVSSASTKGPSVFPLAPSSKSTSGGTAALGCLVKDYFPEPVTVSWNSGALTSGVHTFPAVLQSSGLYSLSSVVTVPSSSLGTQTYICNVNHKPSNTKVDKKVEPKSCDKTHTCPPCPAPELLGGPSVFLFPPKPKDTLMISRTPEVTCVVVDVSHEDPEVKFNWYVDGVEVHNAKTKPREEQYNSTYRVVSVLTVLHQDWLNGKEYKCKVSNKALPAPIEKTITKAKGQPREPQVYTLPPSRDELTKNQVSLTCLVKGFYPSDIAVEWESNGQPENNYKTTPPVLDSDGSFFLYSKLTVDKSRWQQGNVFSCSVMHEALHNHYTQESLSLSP
light: B1 light
notes: also called Ho Ab S337_14T
B6: GpH7-B3 variant S337_15Y/GpL16-k0 (antibody, human IgG1, kappa)
heavy: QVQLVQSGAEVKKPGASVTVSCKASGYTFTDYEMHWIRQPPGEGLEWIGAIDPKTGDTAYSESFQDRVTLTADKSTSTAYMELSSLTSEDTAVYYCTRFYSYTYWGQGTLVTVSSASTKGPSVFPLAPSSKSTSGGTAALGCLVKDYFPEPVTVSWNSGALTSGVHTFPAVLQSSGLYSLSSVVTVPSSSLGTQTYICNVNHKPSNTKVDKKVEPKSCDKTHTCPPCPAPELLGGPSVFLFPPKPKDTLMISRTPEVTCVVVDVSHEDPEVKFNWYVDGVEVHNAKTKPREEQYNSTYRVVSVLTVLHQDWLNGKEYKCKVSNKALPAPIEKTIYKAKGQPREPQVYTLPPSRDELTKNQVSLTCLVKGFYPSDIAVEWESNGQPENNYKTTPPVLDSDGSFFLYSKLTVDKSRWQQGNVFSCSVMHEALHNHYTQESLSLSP
light: B1 light
notes: also called Ho Ab S337_15Y
B7: GpH7-B3 variant S337_18N/GpL16-k0 (antibody, human IgG1, kappa)
heavy: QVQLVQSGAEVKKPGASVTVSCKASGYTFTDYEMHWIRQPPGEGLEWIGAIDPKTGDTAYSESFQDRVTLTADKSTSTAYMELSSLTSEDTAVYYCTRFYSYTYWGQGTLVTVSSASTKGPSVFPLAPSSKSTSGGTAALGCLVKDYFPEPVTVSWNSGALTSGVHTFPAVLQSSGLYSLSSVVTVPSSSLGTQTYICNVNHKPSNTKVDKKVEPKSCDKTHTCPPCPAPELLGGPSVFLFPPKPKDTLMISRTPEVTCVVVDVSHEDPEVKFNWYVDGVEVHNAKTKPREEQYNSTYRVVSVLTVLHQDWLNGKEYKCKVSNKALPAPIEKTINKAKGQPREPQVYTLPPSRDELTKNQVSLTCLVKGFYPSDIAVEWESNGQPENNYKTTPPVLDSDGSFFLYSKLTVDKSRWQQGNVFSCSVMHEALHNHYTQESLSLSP
light: B1 light
notes: also called Ho Ab S337_18N
B8: GpH7-B3 variant S337_20W/GpL16-k0 (antibody, human IgG1, kappa)
heavy: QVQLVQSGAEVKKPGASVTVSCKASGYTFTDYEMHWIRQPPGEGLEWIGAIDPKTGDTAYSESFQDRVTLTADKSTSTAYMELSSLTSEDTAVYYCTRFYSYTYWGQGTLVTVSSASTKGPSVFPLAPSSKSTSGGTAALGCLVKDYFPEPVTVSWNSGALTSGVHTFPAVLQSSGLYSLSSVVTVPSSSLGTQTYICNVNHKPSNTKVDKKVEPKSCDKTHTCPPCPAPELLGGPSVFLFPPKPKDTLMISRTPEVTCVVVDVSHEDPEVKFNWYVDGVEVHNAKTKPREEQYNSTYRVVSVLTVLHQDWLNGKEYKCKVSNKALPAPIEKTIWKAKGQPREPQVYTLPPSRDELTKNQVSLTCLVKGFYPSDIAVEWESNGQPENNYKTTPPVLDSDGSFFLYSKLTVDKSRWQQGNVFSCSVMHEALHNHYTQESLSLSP
light: B1 light
notes: also called Ho Ab S337_20W
B9: GpH7-B3 variant T335_07I/GpL16-k0 (antibody, human IgG1, kappa)
heavy: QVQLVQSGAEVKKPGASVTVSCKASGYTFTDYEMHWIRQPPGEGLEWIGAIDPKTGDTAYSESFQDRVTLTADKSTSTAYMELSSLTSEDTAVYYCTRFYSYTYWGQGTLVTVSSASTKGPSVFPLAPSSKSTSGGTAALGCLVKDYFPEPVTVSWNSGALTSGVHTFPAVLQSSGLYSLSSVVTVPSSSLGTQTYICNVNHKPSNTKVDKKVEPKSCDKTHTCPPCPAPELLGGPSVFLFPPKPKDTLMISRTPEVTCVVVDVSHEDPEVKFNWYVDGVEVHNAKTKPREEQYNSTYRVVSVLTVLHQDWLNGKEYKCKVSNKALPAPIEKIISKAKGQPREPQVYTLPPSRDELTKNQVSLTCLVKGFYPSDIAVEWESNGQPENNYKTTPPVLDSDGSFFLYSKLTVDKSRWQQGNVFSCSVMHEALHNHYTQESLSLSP
light: B1 light
notes: also called Ho Ab T335_07I
B10: GpH7-B3 variant T335_10E/GpL16-k0 (antibody, human IgG1, kappa)
heavy: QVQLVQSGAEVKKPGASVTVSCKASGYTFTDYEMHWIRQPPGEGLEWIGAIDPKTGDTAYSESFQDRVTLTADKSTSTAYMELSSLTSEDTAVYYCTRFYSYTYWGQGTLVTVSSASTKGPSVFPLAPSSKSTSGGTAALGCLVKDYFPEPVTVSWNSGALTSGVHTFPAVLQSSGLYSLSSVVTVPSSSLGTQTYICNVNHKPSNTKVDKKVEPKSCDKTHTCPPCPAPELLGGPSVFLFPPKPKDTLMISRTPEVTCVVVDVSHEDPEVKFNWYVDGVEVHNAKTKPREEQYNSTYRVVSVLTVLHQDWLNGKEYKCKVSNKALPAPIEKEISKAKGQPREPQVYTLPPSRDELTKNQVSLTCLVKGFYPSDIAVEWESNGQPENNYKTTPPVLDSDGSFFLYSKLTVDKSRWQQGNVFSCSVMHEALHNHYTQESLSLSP
light: B1 light
notes: also called Ho Ab T335_10E
B11: GpH7-B3 variant T335_13S/GpL16-k0 (antibody, human IgG1, kappa)
heavy: not shown
light: B1 light
notes: also called Ho Ab T335_13S
B12: GpH7-B3 variant T335_15Y/GpL16-k0 (antibody, human IgG1, kappa)
heavy: not shown
light: B1 light
notes: also called Ho Ab T335_15Y
B13: GpH7-B3 variant T335_16H/GpL16-k0 (antibody, human IgG1, kappa)
heavy: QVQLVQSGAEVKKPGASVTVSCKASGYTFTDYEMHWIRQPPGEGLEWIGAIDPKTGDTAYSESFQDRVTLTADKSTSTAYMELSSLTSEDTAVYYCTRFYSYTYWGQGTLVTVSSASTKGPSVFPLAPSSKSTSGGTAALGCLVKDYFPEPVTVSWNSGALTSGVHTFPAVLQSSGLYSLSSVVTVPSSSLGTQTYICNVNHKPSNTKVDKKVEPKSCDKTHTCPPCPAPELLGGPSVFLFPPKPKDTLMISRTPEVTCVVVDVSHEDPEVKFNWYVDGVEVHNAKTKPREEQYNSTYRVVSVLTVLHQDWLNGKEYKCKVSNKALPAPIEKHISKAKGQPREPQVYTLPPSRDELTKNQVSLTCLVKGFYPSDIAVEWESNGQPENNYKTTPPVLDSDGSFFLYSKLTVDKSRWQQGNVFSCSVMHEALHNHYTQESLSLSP
light: B1 light
notes: also called Ho Ab T335_16H
B14: GpH7-B3 variant T335_19Q/GpL16-k0 (antibody, human IgG1, kappa)
heavy: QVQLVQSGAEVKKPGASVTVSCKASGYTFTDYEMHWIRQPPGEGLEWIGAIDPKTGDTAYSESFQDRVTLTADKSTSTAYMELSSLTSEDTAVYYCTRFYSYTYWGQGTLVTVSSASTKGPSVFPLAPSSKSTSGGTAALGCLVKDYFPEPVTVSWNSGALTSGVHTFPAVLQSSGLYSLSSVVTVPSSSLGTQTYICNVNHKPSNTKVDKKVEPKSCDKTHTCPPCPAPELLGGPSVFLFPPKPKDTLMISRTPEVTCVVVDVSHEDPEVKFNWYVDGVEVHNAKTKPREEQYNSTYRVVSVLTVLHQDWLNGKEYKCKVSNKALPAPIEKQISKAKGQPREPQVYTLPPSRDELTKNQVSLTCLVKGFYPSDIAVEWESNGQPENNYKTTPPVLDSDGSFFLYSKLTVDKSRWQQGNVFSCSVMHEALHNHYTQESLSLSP
light: B1 light
notes: also called Ho Ab T335_19Q
B15: GpH7-B3 variant T335_20W/GpL16-k0 (antibody, human IgG1, kappa)
heavy: not shown
light: B1 light
notes: also called Ho Ab T335_20W
B16: GpH7-B3 variant V266_08L/GpL16-k0 (antibody, human IgG1, kappa)
heavy: not shown
light: B1 light
notes: also called Ho Ab V266_08L
B17: GpH7-B3-01-15Y/GpL16-k0 (antibody, human IgG1, kappa)
heavy: not shown
light: B1 light
notes: also called Ho Ab L234_15Y; GpH7-B3 variant L234_15Y/GpL16-k0
B18: GpH7-B3-03-20W/GpL16-k0 (antibody, human IgG1, kappa)
heavy: not shown
light: B1 light
notes: also called Ho Ab G236_20W; GpH7-B3 variant G236_20W/GpL16-k0
B19: GpH7-B16/GpL16-k0 (antibody, human IgG1, kappa)
heavy: not shown
light: B1 light
notes: also called Ho Ab L234_10E; GpH7-B3 variant L234_10E/GpL16-k0
B20: GpH7-B17/GpL16-k0 (antibody, human IgG1, kappa)
heavy: not shown
light: B1 light
notes: also called Ho Ab L234_09D; GpH7-B3 variant L234_09D/GpL16-k0

The binders below were run against T1, FcγRIIIa extracellular domain with C-terminal His tag (human, UniProt P08637 17-208) (assay: SPR relative binding; GpH7-B3/GpL16-k0 = 100).
T1 construct: extracellular domain; also called FcgRIIIa; 3a; not shown: His tag at the C terminus
T1 sequence (P08637 17-208): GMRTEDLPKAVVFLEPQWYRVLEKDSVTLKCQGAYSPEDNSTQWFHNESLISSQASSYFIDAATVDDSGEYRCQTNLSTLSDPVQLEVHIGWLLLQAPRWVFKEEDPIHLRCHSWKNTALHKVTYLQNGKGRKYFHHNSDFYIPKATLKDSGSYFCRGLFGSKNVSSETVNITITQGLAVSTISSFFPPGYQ
Description: Analysis of interaction between objective antibody and the FcγR was carried out using Biacore T100 (GE Healthcare). HBS-EP+ (GE Healthcare) was used as the running buffer, and the measurement temperature was set to 25° C. Chips produced by immobilizing the antigen peptide by the amine coupling method to a Series S Sencor Chip CM5 (GE Healthcare), or alternatively, chips produced by allowing preliminarily biotinylated antigen peptides to interact with and immobilize onto a Series S Sensor Chip SA (certified) (GE Healthcare) were used. Antibodies of interest were captured onto an antigen peptide-immobilized chip, and allowed to interact to each FcγR diluted with running buffer. To regenerate and repeatedly use the chip, the antibodies captured on the chip were washed off by reacting 10 mM glycine-HCl, pH 1.5.
The FcγR-binding activity of each antibody was assessed primarily using as an indicator the FcγR-binding activity and dissociation constant for FcγR.
In the case of B1, the Ho/Con_3a is reported as 100 % of control. In the case of B2, the Ho/Con_3a is reported as 103 % of control. For B3, the Ho/Con_3a was 106 % of control. B4 was tested, and the Ho/Con_3a was 100 % of control. With B5 the Ho/Con_3a was 97.2 % of control. For B6, the Ho/Con_3a was 99 % of control. In the case of B7, the Ho/Con_3a is reported as 102 % of control. For B8, the Ho/Con_3a was 87.8 % of control. With B9 the Ho/Con_3a was 107 % of control. B10 was tested, and the Ho/Con_3a was 102 % of control. With B11 the Ho/Con_3a was 97.6 % of control. B12 was tested, and the Ho/Con_3a was 91.5 % of control. For B13, the Ho/Con_3a was 99.5 % of control. B14 was tested, and the Ho/Con_3a was 97.7 % of control. With B15 the Ho/Con_3a was 91.8 % of control. For B16, the Ho/Con_3a was 90.5 % of control. With B17 the Ho/Con_3a was 64.7 % of control. With B18 the Ho/Con_3a was 58.3 % of control. For B19, the Ho/Con_3a was 64.7 % of control. B20 was tested, and the Ho/Con_3a was 52.8 % of control.
